Publication PMC4330387

Assays:
Sp1 (recombinant) = Sp1 (recombinant) (UniProt P08047 1-785); test: EMSA
GST-ZFDBD-ZBTB2 = target: T1, GST-ZFDBD-ZBTB2 (human, UniProt Q8N680 254-468); test: EMSA
T1 sequence: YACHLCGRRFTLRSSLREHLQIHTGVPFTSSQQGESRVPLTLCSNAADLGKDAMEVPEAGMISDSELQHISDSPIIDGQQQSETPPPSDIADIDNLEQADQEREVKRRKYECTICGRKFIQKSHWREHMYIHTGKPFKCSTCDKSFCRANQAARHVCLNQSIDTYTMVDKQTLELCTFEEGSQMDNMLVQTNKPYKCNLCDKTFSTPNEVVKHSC

Chain of Sp1 (recombinant) (P08047 whole entry): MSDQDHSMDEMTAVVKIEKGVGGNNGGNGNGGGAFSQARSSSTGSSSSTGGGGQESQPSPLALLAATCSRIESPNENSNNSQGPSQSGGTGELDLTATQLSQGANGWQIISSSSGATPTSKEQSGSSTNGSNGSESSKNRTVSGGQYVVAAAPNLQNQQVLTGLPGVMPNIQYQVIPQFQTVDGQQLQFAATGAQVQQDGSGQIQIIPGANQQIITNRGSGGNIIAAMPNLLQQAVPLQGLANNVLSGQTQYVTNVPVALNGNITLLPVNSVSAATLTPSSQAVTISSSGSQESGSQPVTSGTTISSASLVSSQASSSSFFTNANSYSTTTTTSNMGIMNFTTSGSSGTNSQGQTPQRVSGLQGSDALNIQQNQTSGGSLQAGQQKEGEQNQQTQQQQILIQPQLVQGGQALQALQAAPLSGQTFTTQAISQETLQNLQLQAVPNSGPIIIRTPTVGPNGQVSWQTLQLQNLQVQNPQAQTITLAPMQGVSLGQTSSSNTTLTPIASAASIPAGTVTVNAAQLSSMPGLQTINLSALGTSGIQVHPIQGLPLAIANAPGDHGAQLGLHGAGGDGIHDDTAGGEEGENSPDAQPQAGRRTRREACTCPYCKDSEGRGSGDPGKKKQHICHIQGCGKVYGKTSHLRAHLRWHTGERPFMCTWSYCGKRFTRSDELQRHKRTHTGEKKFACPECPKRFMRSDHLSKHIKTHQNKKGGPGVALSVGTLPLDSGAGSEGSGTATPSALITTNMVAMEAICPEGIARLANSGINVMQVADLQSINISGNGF

B1: GC-box #3 EMSA probe (dsDNA)
DNA 1: GATCTTTCCCTGCGCGGGGCGGGCGGCCGCAGCCC
DNA 2: GGGCTGCGGCCGCCCGCCCCGCGCAGGGAAAGATC
binding result (Sp1 (recombinant)): binds | binding result (GST-ZFDBD-ZBTB2): binds
